The values below come from PMC11446282 (2024).

B1: CDCA4 (found with purified B55 variants) [human] / B55α WT (immunopurified, Fig. 2) [not stated] (parent complex)
chain 1: MFARGLKRKCVGHEEDVEGALAGLKTVSSYSLQRQSLLDMSLVKLQLCHMLVEPNLCRSVLIANTVRQIQEEMTQDGTWRTVAPQAAERAPLDRLVSTEILCRAAWGQEGAHPAPGLGDGHTQGPVSDLCPVTSAQAPRHLQSSAWEMDGPRENRGSFHKSLDQIFETLETKNPSCMEELFSDVDSPYYDLDTVLTGMMGGARPGPCEGLEGLAPATPGPSSSCKSDLGELDHVVEILVET
chain 2: MAGAGGGNDIQWCFSQVKGAVDDDVAEADIISTVEFNHSGELLATGDKGGRVVIFQQEQENKIQSHSRGEYNVYSTFQSHEPEFDYLKSLEIEEKINKIRWLPQKNAAQFLLSTNDKTIKLWKISERDKRPEGYNLKEEDGRYRDPTTVTTLRVPVFRPMDLMVEASPRRIFANAHTYHINSISINSDYETYLSADDLRINLWHLEITDRSFNIVDIKPANMEELTEVITAAEFHPNSCNTFVYSSSKGTIRLCDMRASALCDRHSKLFEEPEDPSNRSFFSEIISSISDVKFSHSGRYMMTRDYLSVKIWDLNMENRPVETYQVHEYLRSKLCSLYENDCIFDKFECCWNGSDSVVMTGSYNNFFRMFDRNTKRDITLEASRENNKPRTVLKPRKVCASGKRKKDEISVDSLDFNKKILHTAWHPKENIIAVATTNNLYIFQDKVN
B2: IER2 (found with purified B55 variants) [human] / B55α WT (immunopurified, Fig. 2) [not stated] (parent complex)
chain 1: MEVQKEAQRIMTLSVWKMYHSRMQRGGLRLHRSLQLSLVMRSARELYLSAKVEALEPEVSLPAALPSDPRLHPPREAESTAETATPDGEHPFPEPMDTQEAPTAEETSACCAPRPAKVSRKRRSSSLSDGGDAGLVPSKKARLEEKEEEEGASSEVADRLQPPPAQAEGAFPNLARVLQRRFSGLLNCSPAAPPTAPPACEAKPACRPADSMLNVLVRAVVAF
chain 2: B1 chain 2
B3: PME1 (found with purified B55 variants) [human] / B55α WT (immunopurified, Fig. 2) [not stated] (parent complex)
chain 1: MSALEKSMHLGRLPSRPPLPGSGGSQSGAKMRMGPGRKRDFSPVPWSQYFESMEDVEVENETGKDTFRVYKSGSEGPVLLLLHGGGHSALSWAVFTAAIISRVQCRIVALDLRSHGETKVKNPEDLSAETMAKDVGNVVEAMYGDLPPPIMLIGHSMGGAIAVHTASSNLVPSLLGLCMIDVVEGTAMDALNSMQNFLRGRPKTFKSLENAIEWSVKSGQIRNLESARVSMVGQVKQCEGITSPEGSKSIVEGIIEEEEEDEEGSESISKRKKEDDMETKKDHPYTWRIELAKTEKYWDGWFRGLSNLFLSCPIPKLLLLAGVDRLDKDLTIGQMQGKFQMQVLPQCGHAVHEDAPDKVAEAVATFLIRHRFAEPIGGFQCVFPGC
chain 2: B1 chain 2
B4: FAM122A [human (endogenous in HeLa)] / B55α WT (immunopurified, Fig. 2) [not stated] (parent complex)
chain 1: MAQEKMELDLELPPGTGGSPAEGGGSGGGGGLRRSNSAPLIHGLSDTSPVFQAEAPSARRNSTTFPSRHGLLLPASPVRMHSSRLHQIKQEEGMDLINRETVHEREVQTAMQISHSWEESFSLSDNDVEKSASPKRIDFIPVSPAPSPTRGIGKQCFSPSLQSFVSSNGLPPSPIPSPTTRFTTRRSQSPINCIRPSVLGPLKRKCEMETEYQPKRFFQGITNMLSSDVAQLSDPGVCVSSDTLDGNSSSAGSSCNSPAKVSTTTDSPVSPAQAASPFIPLDELSSK
chain 2: B1 chain 2

The variants in the first test derive from B1. Description: immunopurification of YFP-B55α variants (IP: YFP), Western blot quantification; read off a plot. On the technique in general: In western blotting, separated proteins are transferred to a membrane and probed.
Regarding chain 2 V228A, the percent of parent was approximately 78%.

Turning to chain 2 D340A, the percent of parent is approximately 28%. On to chain 2 Y178A, for which the percent of parent was approximately 90%. Turning to chain 2 T230A, the percent of parent was approximately 58%. The same measure, in the same setting: then chain 2 F343A, with approximately 28%; and chain 2 L225A, with approximately 75%. Regarding chain 2 Y337A, the percent of parent was approximately 50%. On the same count and under the same terms, in the case of chain 2 I284A it was approximately 160%.

As for chain 2 L198A, the percent of parent is approximately 40%. On the same count and under the same terms, then chain 2 D197A, with approximately 80%; and chain 2 F280A, with approximately 110%. Still for that read-out and setting: then chain 2 S287A, with approximately 130%; and chain 2 H179A, with approximately 93%.

The variants in another test derive from B2. The description is as above.
Regarding chain 2 S287A, the percent of parent is approximately 67%. In the case of chain 2 H179A, the percent of parent was approximately 140%. On to chain 2 D197A, for which the percent of parent is approximately 7%. Regarding chain 2 D340A, the percent of parent is approximately 2%. Same read-out and setting: then chain 2 T230A, with approximately 50%; and chain 2 V228A, with approximately 70%; and chain 2 Y178A, with approximately 55%.

As for chain 2 I284A, the percent of parent was approximately 65%. As for chain 2 F280A, the percent of parent is approximately 83%. Same read-out and setting: in the case of chain 2 F343A it was approximately 30%; in that of chain 2 Y337A, approximately 2%. On the same count and under the same terms, then chain 2 L198A, with approximately 3%; and chain 2 L225A, with approximately 25%.

A further test covers variants of B3. Described as above.
Take chain 2 D340A: the percent of parent was approximately 50%.

Take chain 2 I284A: the percent of parent is approximately 13%. For the variant chain 2 T230A, the percent of parent was approximately 3%. Same read-out and setting: in the case of chain 2 S287A it was approximately 4%. Take chain 2 F280A: the percent of parent was approximately 130%. The same measure, in the same setting: then chain 2 F343A, with approximately 3%.

In the next test the parent is B4. Described as above.
As to chain 2 D340A, the percent of parent was approximately 77%.

Regarding chain 2 D197A, the percent of parent was approximately 0%. Same read-out and setting: in the case of chain 2 L225A it was approximately 130%; in that of chain 2 I284A, approximately 97%; in that of chain 2 Y337A, approximately 130%.

For chain 2 V228A, the percent of parent was approximately 100%. Turning to chain 2 S287A, the percent of parent was approximately 63%. In the case of chain 2 F280A, the percent of parent is approximately 140%. Still for that read-out and setting: in the case of chain 2 T230A it was approximately 93%; in that of chain 2 L198A, approximately 0%; in that of chain 2 H179A, approximately 70%. chain 2 Y178A: the percent of parent is approximately 5%. Take chain 2 F343A: the percent of parent was approximately 90%.
